The results in this text go back to patent publication US20260347449 (published 2026).

Like-named read-outs stand apart in the source and are kept apart here.

In assay [1] the target is T1, human C5 (human, UniProt P01031). Nature of the assay: ELISA. A general note: In an ELISA, binding on a coated surface is turned into a signal by an enzyme label.
Assay [2] addresses T2, human C3 (human, UniProt P01024). Nature of the assay: BLI. (In BLI a coated tip is dipped into the sample, and binding shifts an interference pattern.)
The target in assay [3] is T1, human C5. Briefly: BLI.
Assay [4] deals with T1, human C5. Nature of the assay: BLI. The source holds these as a separate data set.
A further assay concerns the target T3, cynomolgus C5 (cynomolgus).
T3 chain: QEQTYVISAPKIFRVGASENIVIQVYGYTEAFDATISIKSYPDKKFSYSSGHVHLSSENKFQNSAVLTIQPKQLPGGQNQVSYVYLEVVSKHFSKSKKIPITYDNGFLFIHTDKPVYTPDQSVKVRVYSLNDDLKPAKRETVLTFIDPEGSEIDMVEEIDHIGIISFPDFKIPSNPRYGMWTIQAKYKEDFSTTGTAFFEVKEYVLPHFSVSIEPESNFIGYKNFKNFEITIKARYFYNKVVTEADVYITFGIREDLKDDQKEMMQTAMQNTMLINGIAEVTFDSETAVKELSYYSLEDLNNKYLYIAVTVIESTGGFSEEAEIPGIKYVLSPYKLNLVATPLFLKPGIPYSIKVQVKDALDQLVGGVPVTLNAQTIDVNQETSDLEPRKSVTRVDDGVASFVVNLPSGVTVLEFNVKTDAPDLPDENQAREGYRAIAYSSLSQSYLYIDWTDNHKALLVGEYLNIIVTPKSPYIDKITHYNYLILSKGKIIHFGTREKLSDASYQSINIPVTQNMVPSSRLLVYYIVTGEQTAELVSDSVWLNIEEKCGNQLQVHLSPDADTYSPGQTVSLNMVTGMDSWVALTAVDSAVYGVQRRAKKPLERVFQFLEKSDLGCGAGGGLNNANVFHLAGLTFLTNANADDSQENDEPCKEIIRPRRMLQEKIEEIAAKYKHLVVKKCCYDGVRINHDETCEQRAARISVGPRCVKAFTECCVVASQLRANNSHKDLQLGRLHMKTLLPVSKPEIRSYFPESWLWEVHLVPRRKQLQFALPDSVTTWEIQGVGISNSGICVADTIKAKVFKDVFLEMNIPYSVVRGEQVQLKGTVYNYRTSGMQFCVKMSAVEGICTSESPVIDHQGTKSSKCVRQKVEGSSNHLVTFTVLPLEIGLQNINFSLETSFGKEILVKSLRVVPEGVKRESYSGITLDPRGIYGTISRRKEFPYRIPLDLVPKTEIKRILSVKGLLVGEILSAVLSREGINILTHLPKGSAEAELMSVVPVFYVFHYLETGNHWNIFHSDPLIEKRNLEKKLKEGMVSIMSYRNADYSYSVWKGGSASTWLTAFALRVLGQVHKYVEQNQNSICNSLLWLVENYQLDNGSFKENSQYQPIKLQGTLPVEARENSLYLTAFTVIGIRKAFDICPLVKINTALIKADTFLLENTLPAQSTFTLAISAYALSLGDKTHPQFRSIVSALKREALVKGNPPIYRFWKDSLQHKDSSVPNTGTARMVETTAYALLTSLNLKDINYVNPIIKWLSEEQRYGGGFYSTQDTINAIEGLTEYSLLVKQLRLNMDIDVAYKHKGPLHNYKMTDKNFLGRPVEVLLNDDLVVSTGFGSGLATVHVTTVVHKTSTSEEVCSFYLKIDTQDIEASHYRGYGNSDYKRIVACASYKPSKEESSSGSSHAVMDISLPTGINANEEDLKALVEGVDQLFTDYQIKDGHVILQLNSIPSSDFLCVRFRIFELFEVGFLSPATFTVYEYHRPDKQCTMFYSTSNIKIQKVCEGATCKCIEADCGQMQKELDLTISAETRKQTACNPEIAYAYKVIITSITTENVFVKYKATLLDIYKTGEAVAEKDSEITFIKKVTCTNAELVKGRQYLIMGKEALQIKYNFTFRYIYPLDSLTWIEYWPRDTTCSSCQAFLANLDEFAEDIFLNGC
Nature of the assay: BLI.

Assay [5] concerns the target T2, human C3. Nature of the assay: BLI. The source holds these as a separate data set.
For another assay, the target named is human C5 R885H (human, UniProt P01031). Nature of the assay: BLI.
Another assay addresses human C5 W917S (human, UniProt P01031). Briefly: BLI.
In assay [6] the target is T1, human C5. Nature of the assay: BLI, bivalent.

B1: C5S12 (antibody, V domains shown)
VH: QVQLQESGGGLVQAGGSLRLSCAASGYIFPSDDMGWYRQAPGKEREFVAAINDGASTYYADSVKGRFTISRDNAKNTVYLQMNSLKPEDTAVYYCAVQLNYYWDYVYWGQGTQVTVSS
In the case of B1, in the assay with human C5 [1], the binding result is “no binding”.

B2: C3S7 (antibody, V domains shown)
VH: QVQLQESGGGLVQAGGSLRLSCAASGYIFTGVDMGWYRQAPGKEREFVAAISYGASTYYADSVKGRFTISRDNAKNTVYLQMNSLKPEDTAVYYCAASLSNTYLLDLFFRYWGQGTQVTVSS
As to B2, the binding result in the assay with human C3 [2] is on record as “no binding”.

B3: C5S2.2 (antibody, V domains shown)
VH: EVQLVESGGGLVQAGGSLRLSCAASGNIFHQSDMGWYRQAPGKEREFVAAIDYGTNTYYADSVKGRFTISRDNSKNTLYLQMNSLRPEDTAVYYCAARDTSYWDHVYWGQGTLVTVSS
For the molecule B3, the Kd with human C5 [3] and with human C5 [4] was 12 nM in each case. Further, the binding result in the assay with cynomolgus C5, with human C3 [5], with human C5 R885H and with human C5 W917S was “no binding” in each case.

B4: C5S2.2-Fc (antibody, V domains shown)
VH: EVQLVESGGGLVQAGGSLRLSCAASGNIFHQSDMGWYRQAPGKEREFVAAIDYGTNTYYADSVKGRFTISRDNSKNTLYLQMNSLRPEDTAVYYCAARDTSYWDHVYWGQGTLVTVSS
Consider B4, for which, in the assay with human C5 [6], the Kd worked out at 0.654 nM.
